Data set [1] deals with the molecule itself. As to the kind of experiment: negative-stain EM; CARD11^8−109 WT or mutants at 250 μM or 500 μM, 2 h at 25 °C, 50 mM HEPES, 50 mM NaCl, 0.5 mM TCEP, pH 7.0.
Data set [2] concerns the molecule itself. As to the kind of experiment: absorbance at 350 nm + other: negative-stain EM; CARD9^2−97 polymerisation: 1:1 Zn2+-bound CARD, EDTA added at t = 0; 50 mM Tris, 150 mM NaCl, 0.5 mM TCEP, pH 7.0, 25 °C, shaking; NS-EM grids at 90 min.
Data set [3] concerns the molecule itself. As to the kind of experiment: NMR solution structure; CARD9^2−142 dimer, 1 mM with 1:1 ZnCl2, 50 mM HEPES, 300 mM NaCl, 0.5 mM TCEP, pH 7.0, 37 °C; intermolecular NOEs from a mixed labelled/unlabelled sample, RDCs.
Data set [4] concerns the molecule itself. As to the kind of experiment: negative-stain EM; CARD9^2–152 constructs purified 1:1 with Zn2+, Zn2+ removed with a twofold excess of EDTA, incubated at the indicated concentration, time and temperature; 50 mM HEPES, 150 mM NaCl, 0.5 mM TCEP, pH 7.0; step: dimers to filaments.

B1: CARD11^8−109 (CARD11 CARD), wild type (domain or fragment, human, UniProt Q9BXL7 8-109, looked up)
chain: MDDYMETLKDEEDALWENVECNRHMLSRYINPAKLTPYLRQCKVIDEQDEDEVLNAPMLPSKINRAGRLLDILHTKGQRGYVVFLESLEFYYPELYKLVTGK
notes: CARD11 (CARMA1), human, residues 8-109 (CARD); also called WT CARD11 CARD; source: E. coli BL21(DE3), purified (Ni-NTA, TEV, Superdex 75); not shown: 6xHis, N-terminal, cleaved
Take B1: the binding result in data set [1] is “binds”.

B2: CARD9^2−97 (CARD9 CARD alone), wild type (domain or fragment, human, UniProt Q9H257 2-97, looked up)
chain: SDYENDDECWSVLEGFRVTLTSVIDPSRITPYLRQCKVLNPDDEEQVLSDPNLVIRKRKVGVLLDILQRTGHKGYVAFLESLELYYPQLYKKVTGK
notes: CARD9, human, residues 2-97 (CARD); polymerisation started by EDTA; also called CARD9^2−97/WT; source: E. coli BL21(DE3), purified (Ni-NTA, TEV, Superdex 75); not shown: 6xHis, N-terminal, cleaved
Take B2: in data set [2], the binding result is “binds”.

B3: CARD9^2−97/D43R/K58D (domain or fragment, human, UniProt Q9H257 2-97, looked up)
chain: SDYENDDECWSVLEGFRVTLTSVIDPSRITPYLRQCKVLNPRDEEQVLSDPNLVIRDRKVGVLLDILQRTGHKGYVAFLESLELYYPQLYKKVTGK
notes: CARD9, human, residues 2-97 (CARD); also called charge-swap mutant of the Type III interface; source: E. coli BL21(DE3), purified (Ni-NTA, TEV, Superdex 75; insoluble mutants under denaturing conditions); not shown: 6xHis, N-terminal, cleaved
Take B3: the binding result in data set [2] is listed as “binds”.

B4: CARD9^2−142 (domain or fragment, human, UniProt Q9H257 2-142, looked up)
chain: SDYENDDECWSVLEGFRVTLTSVIDPSRITPYLRQCKVLNPDDEEQVLSDPNLVIRKRKVGVLLDILQRTGHKGYVAFLESLELYYPQLYKKVTGKEPARVFSMIIDASGESGLTQLLMTEVMKLQKKVQDLTALLSSKDD
notes: Isotope-labelled samples with 1:1 ZnCl2 for NMR; not shown: 6xHis, N-terminal, cleaved
Regarding B4, the binding result in data set [3] is “binds”.

B5: CARD9^2−152/L115I (domain or fragment, human, UniProt Q9H257 2-152, looked up)
chain: SDYENDDECWSVLEGFRVTLTSVIDPSRITPYLRQCKVLNPDDEEQVLSDPNLVIRKRKVGVLLDILQRTGHKGYVAFLESLELYYPQLYKKVTGKEPARVFSMIIDASGESGITQLLMTEVMKLQKKVQDLTALLSSKDDFIKELRVKDS
notes: not shown: 6xHis, N-terminal, cleaved
Turning to B5, in data set [4], the binding result is recorded as “binds”.

The record behind these values is article PMC6624267, “Structures of autoinhibited and polymerized forms of CARD9 reveal mechanisms of CARD9 and CARD11 activation” (Nature Communications, 2019).
